Consider 20 molecules from US11702666B2, “Cell-based assay for determining activity in the retinoblastoma pathway” (Medical Diagnostic Laboratories, LLC, priority 2017, dated 2023).

Residue numbers refer to the chain shown, from its start. Names and notes keep the numbering of the source. “Also recorded” adds a separate entry of the source.

Test [1] concerns Rb/E2F1-Dp-1 complex. The experiment in a line: CDK6 mutant activity / drug resistance in NanoBiT assay, stable cell line #11. The class given is cell-based, human. The following applies: for Luc. activity (/wt): relative to WT; for Luc activity (/wt): CDK6 mutants, compared to the WT (being 100%). How it is done: (§1) A linear expression cassette of mutated CDK4 or CDK6 was generated by PCR mediated overlapping extension method. A pair of forward and reverse primers containing the targeted mutations was designed. The mutated codon was located in the middle of a primer flanked by 18-21 nucleotides on each side. Two PCRs (named as PCR #1 and PCR #2 in FIG. 1) were performed using UF-CMV forward and mutated reverse primers, or mutated forward and BGH-UR primers. The PCR products were cleaned up by ExoSAP-IT® (Affymetrix) to remove unconsumed dNTPs and primers. The treated PCR products were mixed together followed by dilution with water. A second round of PCR was performed using the diluted PCR mixture, and the UF and UR primers (FIG. 1). The amplified products were gel-purified. The DNA concentration was quantitated by the optical density at 260 nm using Nanodrop. The targeted mutations were incorporated in the CDK4 or CDK6 genes during the PCR mediated overlapping extension method. The introduced mutations were confirmed by the DNA sequencing.
(§2) To examine the ability of the assay to detect variants in CDK4 or CDK6 that affect function, kinase dead mutants and COSMIC (Catalogue Of Somatic Mutations in cancer) unknown mutants were created. For comparison, hyperactive CDK4 or CDK6 mutants known to be hyperactive due to less binding to natural inhibitor p16 were also created. The mutations in CDK4 or CDK6 were created by site-directed mutagenesis. WT or mutated CDK4 or CDK6 along with the CyclinD1 and SB-Rb were co-transfected, under similar conditions as previously indicated (see FIG. 9).
(§3) Computer modeling was used to reveal the drug-binding pocket and predict drug-resistant mutants. The mutations in CDK4 and CDK6 were created by site-directed mutagenesis. WT or mutated CDK4 or CDK6 along with the CyclinD1 and SB-Rb was co-transfected into #11 cell line, under the same conditions as previously indicated. […] Dose response curves are presented on FIG. 13A and FIG. 13B. Activity of other mutants was very similar to the WT or KD.
(§4) CDK4 and CDK6 mutants with known function and unknown function taken from the COSMIC database were analyzed in the present assay and are summarized in Table 7A and Table 7B. The mutants were classified according to their activity. Table 7A and Table 7B also show the number of counts per mutant in the COSMIC database, type of cancer, and luciferase activity compared to the WT (being 100%).

The target in test [2] is T1, CDK4 (Homo sapiens, UniProt P11802).
T1 construct: expressed in transfected cells; host or cells: HEK293 CDK4/CDK6 double-knockout cells stably expressing E2F1-Dp-1-LB (clone #11); early experiments in plain HEK293
The experiment in a line: p16 activity assay with CDK4 (NanoBiT, cell line #11). The class given is cell-based. The following applies: for signal of p16 mutant (in words): loss of function mutants; for Observed function: p16 (CDKN2A) mutants, with CDK4. The text has this:
(§5) We developed an assay that could measure the interaction between Rb, E2F1 and Dp-1. When the Rb and E2F1 proteins are in close proximity or in complex, a light signal is observed. For the purpose of the assay, split-luciferase complementation was used to measure the interaction between Rb and E2F1, which served as a surrogate measure of CDK4/6 activity and the ability of CDK4/6 to respond to the natural inhibitor p16. The NanoBiT assay system by Promega (Madison, Wis.; Dixon et al., 2015, ACS ChemBiol) was used in the split luciferase complementation design. FIG. 24 depicts a design of a signal system to measure p16 activity. Under basal conditions inside the cell, Rb is active and interacts with the E2F1/Dp-1 heterodimer. However, in the presence of the CDK4 or CDK6, Rb gets phosphorylated and released from the interacting complex. In the presence of the natural inhibitor p16, CDK4/6 is no longer available to phosphorylate Rb and thus promoting the Rb/E2F1-Dp-1 complex formation.
For the purpose of the current assay, the stable cell line #11 that we generated for the CDK activity assay was used and described above. HEK293 CDK DKO cells containing E2F1-Dp-1-LB was transiently transfected with CDK4/CDK6, CyclinD1, and SB-Rb. The transfected cells were then exposed to the natural inhibitor p16 (FIG. 25). When CDK4 or CDK6 is present, a decrease in activity was observed as Rb gets phosphorylated resulting in no Rb/E2F1-Dp-1 interaction. […] The data presented was a sample experiment where each condition was performed in triplicate and represented mean+SD.
The conditions of the assay were optimized by using different p16 amounts and cell numbers (FIGS. 25A and 25B). Based on the data generated, it was decided that using 0.2×10^6 cells/ml and 10 ng of p16 would be preferable.
To examine the ability of the assay to detect variants in CDKN2A that affect function, known loss of function mutants and unknown COSMIC mutants were created. Wild-type or mutated CDKN2A were prepared in a manner similar to that previously indicated. […] Therefore the p16 activity assay is capable of determining the relative activity level of p16 mutants. The data provided is in Luminescence (RLU) of a single experiment with each condition performed in triplicate and represent average+SD. Summary Table 13 reports p16 mutants tested.
In addition to check functional state of p16 mutants, p16 activity assay can be used to look at p16 inhibition response of different CDK4 and CDK6 mutants. Different response of WT CDK4 and CDK6 and hyperactive mutants of CDK4 (R24A) and CDK6 (R31C) is shown on FIG. 28. […] The p16 activity assay is so sensitive and specific that hyperactive CDK4 and CDK6 mutants can show different response to mutant p16.

The next test deals with T2, CDK6 (Homo sapiens, UniProt Q00534).
T2 construct: expressed in transfected cells; host or cells: HEK293 CDK4/CDK6 double-knockout cells stably expressing E2F1-Dp-1-LB (clone #11); early experiments in plain HEK293
The experiment in a line: p16 activity assay with CDK6 (NanoBiT, cell line #11). The class given is cell-based. The following applies: CDK6, CyclinD1, SB-Rb transfected cell line #11.
Text: as §5
For the purpose of the current assay, the stable cell line #11 that we generated for the CDK activity assay was used and described above. HEK293 CDK DKO cells containing E2F1-Dp-1-LB was transiently transfected with CDK4/CDK6, CyclinD1, and SB-Rb. The transfected cells were then exposed to the natural inhibitor p16 (FIG. 25). […]

In test [3] the test system is CDK4. The note with it: p16 (CDKN2A) mutants; cited from earlier work.
Test [4] relates to Rb/E2F1-Dp-1 complex. The experiment in a line: CDK4 mutant activity / drug resistance in NanoBiT assay, stable cell line #11. The test is classed as cell-based, human. The following applies: CDK4 mutants, compared to the WT (being 100%). How it is done:
as §1, §2
To examine the specificity of the assay, particular CDK4 kinase dead mutants were created. Modifications to D158 were made by changing aspartate to nonpolar alanine (D158A) or positively charged arginine (D158R). […] The mutations in CDK4 were created by site-directed mutagenesis. WT or mutated CDK4 along with the CyclinD1 and SB-Rb was co-transfected into the #11 cell line, under the same conditions as previously indicated. […] Kinase dead mutants have the high signal due to inability to phosphorylate Rb.
as §3, §4

In test [5] the test system is Rb/E2F1-Dp-1 complex. The note with it: CDK4 mutants, literature ref.; Hyper = hyperactive, KD = kinase dead; cited from earlier work.
Setting [6] is: predicted drug resistant CDK6 mutants.

T1 sequence (P11802 2-303): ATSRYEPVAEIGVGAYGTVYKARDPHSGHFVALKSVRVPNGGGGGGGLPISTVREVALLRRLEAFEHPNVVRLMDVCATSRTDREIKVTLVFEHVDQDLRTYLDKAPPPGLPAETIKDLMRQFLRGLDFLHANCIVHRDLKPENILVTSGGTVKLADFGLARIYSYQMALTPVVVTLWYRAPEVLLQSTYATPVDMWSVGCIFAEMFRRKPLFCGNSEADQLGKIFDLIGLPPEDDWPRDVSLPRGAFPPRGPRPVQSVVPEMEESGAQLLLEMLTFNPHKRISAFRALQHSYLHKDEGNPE
T2 sequence (Q00534 whole entry): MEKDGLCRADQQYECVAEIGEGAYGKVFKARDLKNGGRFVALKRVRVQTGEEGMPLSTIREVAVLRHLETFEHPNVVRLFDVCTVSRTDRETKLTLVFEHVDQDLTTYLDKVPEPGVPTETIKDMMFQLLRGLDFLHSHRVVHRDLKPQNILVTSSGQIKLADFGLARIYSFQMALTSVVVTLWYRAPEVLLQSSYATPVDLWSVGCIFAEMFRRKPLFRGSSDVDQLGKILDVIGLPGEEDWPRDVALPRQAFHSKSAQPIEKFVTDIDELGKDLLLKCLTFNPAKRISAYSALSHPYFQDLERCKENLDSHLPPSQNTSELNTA

Consider “CDK6 L152V: predicted drug resistant CDK6 mutant”, for which the Luc. activity (/wt) in the test on Rb/E2F1-Dp-1 complex [1] (setting [6]) was 114%.

Regarding “CDK6 P199L: CDK6 mutant from COSMIC database”, the “Luc activity (/wt)” value with Rb/E2F1-Dp-1 complex [1] is 565%.

Regarding “CDK6 R144H: CDK6 mutant from COSMIC database”, in the test on Rb/E2F1-Dp-1 complex [1], the “Luc activity (/wt)” value was found to be 267%.

Take “CDK6 R220C: CDK6 mutant from COSMIC database”: the “Luc activity (/wt)” value with Rb/E2F1-Dp-1 complex [1] worked out at 164%.

For the molecule “CDK6 R220S: CDK6 mutant from COSMIC database”, in the test on Rb/E2F1-Dp-1 complex [1], the “Luc activity (/wt)” value came out at 271%.

With “CDK6 T107K: predicted drug resistant CDK6 mutant”, the Luc. activity (/wt) in the test on Rb/E2F1-Dp-1 complex [1] (setting [6]) is 95%. For the same molecule, the Observed drug resist. entry with Rb/E2F1-Dp-1 complex [1] (predicted drug resistant CDK6 mutants, Palbociclib/Ribociclib) was “showed drug resistance; also recorded: Resistant”.

Take “CDK6 V27A: predicted drug resistant CDK6 mutant”: the Luc. activity (/wt) in the test with Rb/E2F1-Dp-1 complex [1] (setting [6]) was 149%.

In the case of “p16: cyclin-dependent kinase inhibitor 2A, natural inhibitor of CDK4 and CDK6, encoded by CDKN2A”, the “luminescence with treatment of p16” value with CDK4 [2] (CDK4, CyclinD1, SB-Rb transfected cell line #11) is “increase in luminescence”; in the test with CDK6 it was “increase in luminescence”.

B1: p16 A20P: p16 (CDKN2A) mutant (protein)
chain: MEPAAGSSMEPSADWLATAPARGRVEEVRALLEAGALPNAPNSYGRRPIQVMMMGSARVAELLLLHGAEPNCADPATLTRPVHDAAREGFLDTLVVLHRAGARLDVRDAWGRLPVDLAEELGHRDVARYLRAAAGGTRGSNHARIDAAEGPSDIPD
On to B1, for which the “signal of p16 mutant (in words)” value with CDK4 [2] is “close to the baseline”.

B2: p16 D108N: p16 (CDKN2A) mutant (protein)
chain: B1 chain with P20A, D108N
On to B2, for which the Observed function result with CDK4 [2] is given as “Normal”.

B3: p16 P114L: p16 (CDKN2A) mutant (protein)
chain: B1 chain with P20A, P114L
Turning to B3, the “signal of p16 mutant (in words)” value in the test with CDK4 [2] is listed as “close to the baseline”.

B4: p16 D14G: p16 (CDKN2A) mutant (protein)
chain: B1 chain with D14G, P20A
For the molecule B4, in the test with CDK4 [2], the Observed function entry is “Normal”.

B5: p16 R144C: p16 (CDKN2A) mutant (protein)
chain: B1 chain with P20A, R144C
B5: in the test with CDK4 [3], the Literature reported function result is on record as “Normal”. For the same molecule, in the test with CDK4 [2], the Observed function entry was “Normal”.

B6: p16 V126D: p16 (CDKN2A) mutant (protein)
chain: B1 chain with P20A, V126D
Take B6: the “signal of p16 mutant (in words)” value with CDK4 [2] is reported as “close to the baseline”.

B7: p16 A148T: p16 (CDKN2A) mutant (protein)
chain: B1 chain with P20A, A148T
B7: the Literature reported function entry in the test on CDK4 [3] was “Normal”. Also, in the test with CDK4 [2], the Observed function result is “Normal”.

B8: p16 A36G: p16 (CDKN2A) mutant (protein)
chain: B1 chain with P20A, A36G
As to B8, the Observed function result in the test with CDK4 [2] is reported as “Normal”.

B9: p16 S56N: p16 (CDKN2A) mutant (protein)
chain: B1 chain with P20A, S56N
As for B9, the Observed function result in the test with CDK4 [2] is on record as “Normal”.

B10: p16 H83Y: p16 (CDKN2A) mutant (protein)
chain: B1 chain with P20A, H83Y
As for B10, the “signal of p16 mutant (in words)” value with CDK4 [2] is on record as “close to the baseline”.

B11: p16 G101W: p16 (CDKN2A) mutant (protein)
chain: B1 chain with P20A, G101W
With B11, in the test with CDK4 [2], the Observed function result is listed as “Reduced”.

B12: CDK4 K22A: CDK4 mutant, literature hyperactive (protein, UniProt P11802 2-303, looked up, variant K22A)
Cyclin-dependent kinase 4: ATSRYEPVAEIGVGAYGTVYAARDPHSGHFVALKSVRVPNGGGGGGGLPISTVREVALLRRLEAFEHPNVVRLMDVCATSRTDREIKVTLVFEHVDQDLRTYLDKAPPPGLPAETIKDLMRQFLRGLDFLHANCIVHRDLKPENILVTSGGTVKLADFGLARIYSYQMALTPVVVTLWYRAPEVLLQSTYATPVDMWSVGCIFAEMFRRKPLFCGNSEADQLGKIFDLIGLPPEDDWPRDVSLPRGAFPPRGPRPVQSVVPEMEESGAQLLLEMLTFNPHKRISAFRALQHSYLHKDEGNPE
Take B12: in the test on Rb/E2F1-Dp-1 complex [4], the “Luc. activity (/wt)” value is reported as 67.5%. For the same molecule, the Reported activity result in the test on Rb/E2F1-Dp-1 complex [5] is reported as “Hyper”.
